Read-outs that look alike come from different tables or passages of the source.
Columns and labels:
[1] = target: human proteasome α6 subunit, short isoform (human) (UniProt P25786); assay: native MS; single proteins, 5–20 μM monomers, 150 mM ammonium acetate (pH 6.8–8.0), nanoflow electrospray
[2] = target: human proteasome α7 subunit, wild type (human) (UniProt P25788); assay: native MS; α4 or α6 (4 μM monomers) mixed with α7 (2 μM tetradecamer), 20 °C, 1 h, 150 mM ammonium acetate
[3] = target: human proteasome α7 subunit, wild type (human) (UniProt P25788); assay: SEC; wild-type α7 in the presence of α1–α6 or α7* (20 μM monomers); loss of the tetradecamer peak
[4] = target: single-ring α7 mutant α7^SR (S96D, S100D, F102R, Y104R) (human); assay: native MS; α4 or α6 (4 μM monomers) mixed with α7^SR (4 μM heptamer), 20 °C, 1 h; α2 incubated with α7^SR before buffer exchange; 150 mM ammonium acetate
[5] = target: human proteasome α7 subunit, wild type (human) (UniProt P25788); assay: native MS; α4 or α6 (4 μM monomers) mixed with α7 (2 μM tetradecamer), 20 °C, 1 h, 150 mM ammonium acetate; remark: listed apart in the source
[6] = target: monomeric α7 mutant α7* (N-terminal residues 1-22 replaced with a hexahistidine-containing segment) (human) (UniProt P25788); assay: SEC; α1–α6 (20 μM monomers) mixed with an equimolar amount of α7*, 20 °C, 1 h; SDS-PAGE (CBB) of the purified complexes
[7] = target: human proteasome α7 subunit, wild type (human) (UniProt P25788); assay: native MS; single proteins, 5–20 μM monomers, 150 mM ammonium acetate (pH 6.8–8.0), nanoflow electrospray
[8] = target: single-ring α7 mutant α7^SR (S96D, S100D, F102R, Y104R) (human); assay: atomic force microscopy; α7^SR alone (Figure S2); height of the ring
[9] = target: single-ring α7 mutant α7^SR (S96D, S100D, F102R, Y104R) (human); assay: native MS; single proteins, 5–20 μM monomers, 150 mM ammonium acetate (pH 6.8–8.0), nanoflow electrospray
[10] = target: single-ring α7 mutant α7^SR (S96D, S100D, F102R, Y104R) (human); assay: as above; remark: listed apart in the source

Sequence of human proteasome α7 subunit, wild type (human) (P25788 whole entry, the tested form may be a part): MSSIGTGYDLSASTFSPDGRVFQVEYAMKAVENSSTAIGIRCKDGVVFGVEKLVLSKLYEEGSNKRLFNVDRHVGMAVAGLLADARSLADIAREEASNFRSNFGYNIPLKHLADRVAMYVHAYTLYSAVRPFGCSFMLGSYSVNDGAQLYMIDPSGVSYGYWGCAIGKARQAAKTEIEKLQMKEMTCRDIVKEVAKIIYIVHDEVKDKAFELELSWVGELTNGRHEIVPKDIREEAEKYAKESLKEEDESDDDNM
Sequence of human proteasome α6 subunit, short isoform (P25786 whole entry, canonical isoform): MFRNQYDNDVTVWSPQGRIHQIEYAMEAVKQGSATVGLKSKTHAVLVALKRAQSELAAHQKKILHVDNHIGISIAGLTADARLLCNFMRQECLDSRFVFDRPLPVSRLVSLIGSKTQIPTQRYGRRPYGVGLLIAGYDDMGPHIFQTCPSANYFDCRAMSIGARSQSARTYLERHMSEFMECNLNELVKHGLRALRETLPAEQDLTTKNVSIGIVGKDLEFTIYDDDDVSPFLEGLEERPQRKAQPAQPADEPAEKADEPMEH
Sequence of human proteasome α4 subunit (O14818 whole entry): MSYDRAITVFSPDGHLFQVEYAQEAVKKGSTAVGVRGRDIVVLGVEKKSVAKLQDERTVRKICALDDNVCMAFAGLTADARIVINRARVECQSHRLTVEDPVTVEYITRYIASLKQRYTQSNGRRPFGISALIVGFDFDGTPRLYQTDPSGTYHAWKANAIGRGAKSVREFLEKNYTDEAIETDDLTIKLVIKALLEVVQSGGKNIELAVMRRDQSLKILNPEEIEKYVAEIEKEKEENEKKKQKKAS
Sequence of human proteasome α7 subunit, wild type (P25788 whole entry): as the sequence (P25788 whole entry, the tested form may be a part) above
Sequence of human proteasome α2 subunit (P25787 whole entry): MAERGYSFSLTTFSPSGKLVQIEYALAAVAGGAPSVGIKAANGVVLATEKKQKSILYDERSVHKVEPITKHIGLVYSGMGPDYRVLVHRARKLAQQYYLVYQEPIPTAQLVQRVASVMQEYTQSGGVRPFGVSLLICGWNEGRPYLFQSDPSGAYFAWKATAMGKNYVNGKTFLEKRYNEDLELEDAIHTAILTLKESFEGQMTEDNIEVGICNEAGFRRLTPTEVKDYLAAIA

human proteasome α6 subunit, short isoform (from UniProt P25786 1-263) (natural protein)
stoichiometry N [1]: 2
stoichiometry N (α7 subunits per α6) [2]: 7
percent of the α7 tetradecamer disrupted into smaller complexes [3]: 50%
stoichiometry N (α7^SR subunits per α6) [4]: 7
stoichiometry N (α7 subunits per α6) [5]: 14

human proteasome α4 subunit (from UniProt O14818 1-248) (natural protein)
stoichiometry N [6]: 1.2 α7· per α4
stoichiometry N (α7^SR subunits per α4) [4]: 7

human proteasome α7 subunit, wild type (from UniProt P25788 1-255) (natural protein)
stoichiometry N [7]: 14

single-ring α7 mutant α7^SR (S96D, S100D, F102R, Y104R) (natural protein)
stoichiometry N [8]: 7
stoichiometry N [9]: 7
stoichiometry N [10]: 14

human proteasome α2 subunit (from UniProt P25787 1-234) (natural protein)
stoichiometry N (α7^SR subunits per α2) [4]: 7
